Blank lines part the entries; values can stand above or below the binder they belong to.
How the values were obtained:
Assay in all cases: ELISA as in Example 2, receptor coated on the plate
[1] = target: T1, Soluble DcR1 protein (R&D Systems Catalog #630-TR-100/CF) (UniProt O14798 26-221, limits assumed)
T1 construct: Coated on the ELISA plate at 2 ug/mL; also called TRAILR3; decoy receptor DcR1
T1 sequence (looked up): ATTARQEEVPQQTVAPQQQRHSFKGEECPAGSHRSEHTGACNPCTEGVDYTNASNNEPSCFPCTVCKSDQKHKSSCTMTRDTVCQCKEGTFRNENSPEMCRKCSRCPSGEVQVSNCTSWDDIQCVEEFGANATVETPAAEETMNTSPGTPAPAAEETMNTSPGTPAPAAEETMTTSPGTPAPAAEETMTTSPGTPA
Procedure: (§1) DR4 or decoy receptors DcR1 and DcR2. Soluble DRS, DR4, DcR1, or DcR2 protein (R&D Systems Catalog #631-T2-100/CF, 347-DR-100/CF, 630-TR-100/CF, 633-TR-100 respectively) were coated on an ELISA plate at 2 μg/mL in 100 mM NaHCO₃ pH 9.5 overnight at 4° C. A solution of 2% BSA in PBS was used for the blocking and antibody incubation steps. The plate was blocked for 1 hour at room temperature, then incubated with mouse anti-human DRS mAb (Acris Antibodies Catalog #AM31206AF-N) for 1 hour at room temperature. anti-DRS mAb was 3-fold serially diluted to concentrations ranging from 1 to 200 ng/mL. After washing 3 times with PBS plus 0.05% Tween-20, the plate was incubated with rat anti-mouse kappa-HRP (Southern Biotech Catalog #1180-05) for 1 hour at room temperature, protected from light. After washing 3 times with PBS plus 0.05% Tween-20, the plate was incubated with TMB substrate (BD Biosciences Catalog #555214) for 20 minutes at room temperature. The reaction was stopped with 1M H₂SO₄ and absorbance at 450nm was determined using a microtiter plate reader.
(§2) Biotech Catalog #9180-05) or 1:6000 Mouse Anti-Human Kappa-HRP (Southern Biotech Catalog #9230-05) was used for detection.

[2] = target: T2, Soluble DR4 protein (R&D Systems Catalog #347-DR-100/CF) (human, UniProt O00220 24-239, limits assumed)
T2 construct: Coated on the ELISA plate at 2 ug/mL; also called TRAILR1; Apo2
T2 sequence (looked up): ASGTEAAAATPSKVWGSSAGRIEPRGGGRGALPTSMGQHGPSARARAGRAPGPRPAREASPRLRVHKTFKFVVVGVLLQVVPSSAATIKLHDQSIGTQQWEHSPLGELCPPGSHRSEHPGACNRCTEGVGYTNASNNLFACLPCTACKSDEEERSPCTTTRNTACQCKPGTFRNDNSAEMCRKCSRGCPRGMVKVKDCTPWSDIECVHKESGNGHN
Procedure: as §1, §2

[3] = target: T3, Soluble DcR2 protein (R&D Systems Catalog #633-TR-100) (UniProt Q9UBN6 56-211, limits assumed)
T3 construct: Coated on the ELISA plate at 2 ug/mL; also called TRAILR4; decoy receptor DcR2
T3 sequence (looked up): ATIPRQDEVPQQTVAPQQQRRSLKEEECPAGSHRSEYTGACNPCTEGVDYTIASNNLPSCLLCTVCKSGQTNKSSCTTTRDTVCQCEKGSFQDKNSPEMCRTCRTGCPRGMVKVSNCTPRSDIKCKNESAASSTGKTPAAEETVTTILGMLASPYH
Procedure: as §1, §2

binding result [1]: no binding | binding result [2]: no binding | binding result [3]: no binding
B1: Anti-DR5 mAb #2, IgG version (antibody, V domains shown)
VH: QVQLQESGPGLVKPSQTLSLTCTVSGGSISSGDYFWSWIRQLPGKGLECIGHIHNSGTTYYNPSLKSRVTISVDTSKKQFSLRLSSVTAADTAVYYCARDRGGDYYYGMDVWGQGTTVTVSS
VL: EIVLTQSPGTLSLSPGERATLSCRASQGISRSYLAWYQQKPGQAPSLLIYGASSRATGIPDRFSGSGSGTDFTLTISRLEPEDFAVYYCQQFGSSPWTFGQGTKVEIK
notes: Human IgG; variable domains put into proprietary IgG vectors (Aragen Biosciences, Lake Pharma); also called DR5 MAb IgG #2; Anti-DRS mAb #2 IgG

binding result [1]: no binding | binding result [2]: no binding | binding result [3]: no binding
B2: Anti-DR5 mAb #2, pentameric IgM-J chain version (antibody, V domains shown)
VH: B1 VH
VL: B1 VL
notes: Pentameric IgM with J chain; variable domains put into proprietary IgM vectors; also called DR5 MAb IgM #2; IgM Anti-DR5 mAb #2

Source: patent US20170320955A1 (IGM BIOSCIENCES A S, published 2017)
